How the values were obtained:
transferrin = target: T1, transferrin (human, UniProt P02787 20-698); test: SPR (Biacore A-100), purified peptide at several concentrations
T1 construct: Amine-coupled to SPR chips, tips or beads; Alexa 555-labeled on arrays; also called TRF; pooled human transferrin (Sigma)
Text: A Biacore A-100 Surface Plasmon Resonance (SPR) system was used to measure the binding response of each peptide to several different target proteins immobilized on a gold surface. The A-100 has four different flow cells and within each flow cell are five addressable spots. Therefore four different proteins and a negative control reference can be used per flow cell. […] Sensorgrams are collected from each immobilized protein, so a binding profile for each analyte versus each of the protein targets is generated for each injection. Target proteins were immobilized using a biotin capture approach in which a CM5 chip was activated using standard amine coupling chemistry and Neutravidin was covalently coupled to the chip. Each biotinylated protein was injected over a single spot and the amount of protein captured was measured. In this manner four proteins were immobilized per flow cell. In this example, the same four proteins were captured in all four flow cells for this experiment.

α1-antitrypsin = target: T2, α1-antitrypsin; test: SPR
T2 construct: also called α-antitrypsin; α-antitrypsine

Gal80 [1] = target: T3, Gal80 (UniProt P04387 1-435, limits assumed); test: SPR, synbody in solution (1 µM to 7.81 nM) over surface-bound Gal80
T3 construct: Cy3/Cy5-labeled on arrays; immobilized on SPR chip or ELISA well, or in solution over immobilized synbody
T3 sequence (looked up): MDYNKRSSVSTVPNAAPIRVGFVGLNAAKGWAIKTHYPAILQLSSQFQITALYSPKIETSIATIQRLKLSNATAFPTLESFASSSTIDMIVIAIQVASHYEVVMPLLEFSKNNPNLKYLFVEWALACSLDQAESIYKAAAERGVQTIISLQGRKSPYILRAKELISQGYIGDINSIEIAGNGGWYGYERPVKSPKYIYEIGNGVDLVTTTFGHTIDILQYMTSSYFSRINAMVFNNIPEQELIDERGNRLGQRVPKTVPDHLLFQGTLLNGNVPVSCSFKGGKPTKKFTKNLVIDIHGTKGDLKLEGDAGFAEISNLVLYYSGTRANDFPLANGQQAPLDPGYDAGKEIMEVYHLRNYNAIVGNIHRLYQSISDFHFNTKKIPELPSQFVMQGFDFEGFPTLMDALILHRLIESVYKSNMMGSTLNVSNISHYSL

Gal80 [2] = target: T3, Gal80; test: gel shift assay

T2 sequence (P01009 25-418): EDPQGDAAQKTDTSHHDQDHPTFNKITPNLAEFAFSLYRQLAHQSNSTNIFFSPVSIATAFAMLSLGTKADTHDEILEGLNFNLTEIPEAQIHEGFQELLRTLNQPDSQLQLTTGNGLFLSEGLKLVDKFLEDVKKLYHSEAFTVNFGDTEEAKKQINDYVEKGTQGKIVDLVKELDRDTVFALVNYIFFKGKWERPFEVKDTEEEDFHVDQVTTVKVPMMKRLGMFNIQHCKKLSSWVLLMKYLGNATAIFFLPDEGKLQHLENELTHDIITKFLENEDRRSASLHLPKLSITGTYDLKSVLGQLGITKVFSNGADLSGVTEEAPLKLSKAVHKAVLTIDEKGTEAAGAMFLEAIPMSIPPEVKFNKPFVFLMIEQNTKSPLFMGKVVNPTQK
T1 sequence (P02787 20-698 limits assumed): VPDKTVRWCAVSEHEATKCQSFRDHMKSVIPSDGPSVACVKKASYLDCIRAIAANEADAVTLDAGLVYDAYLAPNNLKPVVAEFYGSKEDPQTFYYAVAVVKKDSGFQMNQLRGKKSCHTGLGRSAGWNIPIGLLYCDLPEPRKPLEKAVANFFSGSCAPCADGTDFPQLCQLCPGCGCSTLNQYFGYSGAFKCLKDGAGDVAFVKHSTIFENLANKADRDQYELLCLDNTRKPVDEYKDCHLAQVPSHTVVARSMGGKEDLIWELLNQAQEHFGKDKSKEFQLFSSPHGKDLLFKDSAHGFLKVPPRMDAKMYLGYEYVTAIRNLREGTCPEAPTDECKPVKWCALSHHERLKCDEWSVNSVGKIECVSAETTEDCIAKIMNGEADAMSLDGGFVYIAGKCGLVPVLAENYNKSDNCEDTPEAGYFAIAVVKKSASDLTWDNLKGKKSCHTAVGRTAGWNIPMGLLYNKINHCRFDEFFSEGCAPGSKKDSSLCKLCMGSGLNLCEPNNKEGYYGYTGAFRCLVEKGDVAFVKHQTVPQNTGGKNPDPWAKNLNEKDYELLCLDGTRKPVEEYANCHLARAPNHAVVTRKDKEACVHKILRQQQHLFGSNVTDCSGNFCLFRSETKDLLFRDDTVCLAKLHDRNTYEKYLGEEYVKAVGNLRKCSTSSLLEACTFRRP

B1: TRF102 (peptide)
peptide: NQYVPIFSQPEDPVQQEGSC
notes: Screened unpurified
Does B1 bind (transferrin)?
Result: no binding

B2: BP1/BP2 DNA-linked synbody (linker-optimized: BP1 on the template strand, BP2 at position 13 from the 3' end of the variable strand) (designed binder)
peptide 1: GTEKGTSGWLKTGSC
peptide 2: EGEWTEGKLSLRGSC
modifications: C-terminal Cys joined through SMCC to the amine-modified cytosine at position 13 from the 3' terminus of the DNA variable strand (SEQ ID NO: 15); C-terminal Cys joined through SMCC to the 5' terminal amine-modified cytosine of the DNA template strand (SEQ ID NO: 14)
notes: Two peptides held by a double-stranded DNA linker; also called Gal80 synbody; gal80 synbody
What does the source list for B2?
Kd relative to the Kd for gal80 (α1-antitrypsin): 1000 fold; Kd (Gal80 [1]): 91 nM; Kd (Gal80 [2]): ~100 nM
